According to US20240325561A1 (Seagen, published 2024):

Legend:
Test in all cases: cell-based or functional assay
[1] = target: transferrin receptor (UniProt P02786)
[2] = target: T1, CD19 (UniProt P15391 20-556, limits assumed)
T1 sequence (looked up): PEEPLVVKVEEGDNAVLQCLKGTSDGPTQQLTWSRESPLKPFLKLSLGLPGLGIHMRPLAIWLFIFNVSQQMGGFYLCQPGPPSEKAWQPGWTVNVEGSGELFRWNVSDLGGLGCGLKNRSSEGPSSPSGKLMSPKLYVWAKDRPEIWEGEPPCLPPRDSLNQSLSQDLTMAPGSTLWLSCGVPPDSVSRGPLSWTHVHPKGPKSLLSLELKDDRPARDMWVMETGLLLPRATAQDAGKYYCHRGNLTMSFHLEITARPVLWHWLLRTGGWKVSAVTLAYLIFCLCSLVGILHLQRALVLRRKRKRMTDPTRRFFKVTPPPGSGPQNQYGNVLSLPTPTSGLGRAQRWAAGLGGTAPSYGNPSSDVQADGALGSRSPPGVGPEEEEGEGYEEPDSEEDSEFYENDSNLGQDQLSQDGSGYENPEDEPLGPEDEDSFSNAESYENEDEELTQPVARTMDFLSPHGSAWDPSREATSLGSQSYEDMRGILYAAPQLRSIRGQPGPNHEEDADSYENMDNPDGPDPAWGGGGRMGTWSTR

[3] = target: T1, CD19; remark: listed apart in the source

Chain of transferrin receptor (P02786 whole entry): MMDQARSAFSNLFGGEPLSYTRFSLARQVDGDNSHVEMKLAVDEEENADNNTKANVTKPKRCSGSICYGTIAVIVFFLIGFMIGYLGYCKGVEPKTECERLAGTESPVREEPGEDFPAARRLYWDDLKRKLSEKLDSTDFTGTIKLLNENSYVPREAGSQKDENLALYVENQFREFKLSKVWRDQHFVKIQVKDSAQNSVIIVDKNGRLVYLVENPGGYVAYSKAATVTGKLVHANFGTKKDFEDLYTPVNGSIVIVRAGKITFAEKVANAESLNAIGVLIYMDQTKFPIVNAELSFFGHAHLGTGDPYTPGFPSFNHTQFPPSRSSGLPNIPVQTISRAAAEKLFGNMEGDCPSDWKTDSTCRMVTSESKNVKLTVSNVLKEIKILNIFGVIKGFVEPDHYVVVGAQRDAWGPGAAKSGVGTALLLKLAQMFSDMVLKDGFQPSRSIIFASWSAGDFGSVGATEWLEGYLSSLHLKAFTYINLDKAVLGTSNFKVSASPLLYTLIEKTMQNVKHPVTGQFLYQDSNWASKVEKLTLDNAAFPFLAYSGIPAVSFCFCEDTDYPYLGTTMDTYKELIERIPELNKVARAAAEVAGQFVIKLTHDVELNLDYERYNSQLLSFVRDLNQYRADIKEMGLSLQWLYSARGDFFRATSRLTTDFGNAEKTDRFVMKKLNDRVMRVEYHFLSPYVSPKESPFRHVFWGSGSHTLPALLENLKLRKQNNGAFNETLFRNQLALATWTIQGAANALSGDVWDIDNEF

8-load anti-transferrin receptor ADC (cOKT9) having -X-D of MDpr-PABA(gluc)-Camptothecin (antibody)
IC50, cytotoxicity, colorectal cell line HT-29 (TfR copy number 23K) [1]: > 1000 nM
IC50, cytotoxicity, melanoma cell line SK-MEL-5 (TfR copy number 21K) [1]: > 1000 nM

B1: hBU12-14 (antibody, V domains shown)
VH: QVQLQESGPGLVKPSQTLSLTCTVSGGSISTSGMGVGWIRQHPGKGLEWIGHIWWDDDKRYNPALKSRVTISVDTSKNQFSLKLSSVTAADTAVYYCARMELWSYYFDYWGQGTLVTVSS
VL: EIVLTQSPATLSLSPGERATLSCSASSSVSYMHWYQQKPGQAPRLLIYDTSKLASGIPARFSGSGSGTDFTLTISSLEPEDVAVYYCFQGSVYPFTFGQGTKLEIKR
modifications: antibody carries drug-linker 14 (MDpr-glucuronide-MMAE, no PEG), 8 drugs per antibody
IC50, in vitro cytotoxicity, RL cells [2]: 0.061 µg/mL
IC50, in vitro cytotoxicity, Ramos cells [2]: 0.002 µg/mL
IC50, in vitro cytotoxicity, SU-DHL-4 cells [2]: 0.022 µg/mL
IC50, in vitro cytotoxicity, WSU-DLCL-2 cells [2]: 0.005 µg/mL

B2: hBU12-43 (antibody, V domains shown)
VH: B1 VH
VL: B1 VL
modifications: antibody carries drug-linker 43 (MDpr-Lys(PEG2)-glucuronide-MMAE), 8 drugs per antibody
IC50, in vitro cytotoxicity, RL cells [2]: 0.229 µg/mL
IC50, in vitro cytotoxicity, Ramos cells [2]: 0.002 µg/mL
IC50, in vitro cytotoxicity, SU-DHL-4 cells [2]: > 1 µg/mL
IC50, in vitro cytotoxicity, WSU-DLCL-2 cells [2]: 0.012 µg/mL

B3: hBU12-42 (antibody, V domains shown)
VH: B1 VH
VL: B1 VL
modifications: antibody carries drug-linker 42 (MDpr-Lys(PEG4)-glucuronide-MMAE), 8 drugs per antibody
IC50, in vitro cytotoxicity, RL cells [2]: > 1 µg/mL
IC50, in vitro cytotoxicity, Ramos cells [2]: 0.003 µg/mL
IC50, in vitro cytotoxicity, SU-DHL-4 cells [2]: > 1 µg/mL
IC50, in vitro cytotoxicity, WSU-DLCL-2 cells [2]: 0.005 µg/mL

B4: hBU12-18 (antibody, V domains shown)
VH: B1 VH
VL: B1 VL
modifications: antibody carries drug-linker 18 (MDpr-Lys(PEG8)-glucuronide-MMAE), 8 drugs per antibody
IC50, in vitro cytotoxicity, RL cells [2]: > 1 µg/mL
IC50, in vitro cytotoxicity, Ramos cells [2]: 0.002 µg/mL
IC50, in vitro cytotoxicity, SU-DHL-4 cells [2]: 0.016 µg/mL
IC50, in vitro cytotoxicity, WSU-DLCL-2 cells [2]: 0.211 µg/mL

B5: hBU12-17 (antibody, V domains shown)
VH: B1 VH
VL: B1 VL
modifications: antibody carries drug-linker 17 (MDpr-Lys(PEG12)-glucuronide-MMAE), 8 drugs per antibody
IC50, in vitro cytotoxicity, RL cells [2]: > 1 µg/mL
IC50, in vitro cytotoxicity, Ramos cells [2]: 0.002 µg/mL
IC50, in vitro cytotoxicity, SU-DHL-4 cells [2]: > 1 µg/mL
IC50, in vitro cytotoxicity, WSU-DLCL-2 cells [2]: 0.129 µg/mL

B6: hBU12-16 (antibody, V domains shown)
VH: B1 VH
VL: B1 VL
modifications: antibody carries drug-linker 16 (MDpr-Lys(PEG24)-glucuronide-MMAE), 8 drugs per antibody
IC50, in vitro cytotoxicity, RL cells [2]: > 1 µg/mL
IC50, in vitro cytotoxicity, Ramos cells [2]: 0.004 µg/mL
IC50, in vitro cytotoxicity, SU-DHL-4 cells [2]: > 1 µg/mL
IC50, in vitro cytotoxicity, WSU-DLCL-2 cells [2]: 0.003 µg/mL

B7: hBU12-19 (antibody, V domains shown)
VH: B1 VH
VL: B1 VL
modifications: antibody carries drug-linker 19 (MDpr-Lys(PEG4[PEG4]3)-glucuronide-MMAE, branched PEG), 8 drugs per antibody
IC50, in vitro cytotoxicity, RL cells [2]: > 1 µg/mL
IC50, in vitro cytotoxicity, Ramos cells [2]: 0.002 µg/mL
IC50, in vitro cytotoxicity, SU-DHL-4 cells [2]: > 1 µg/mL
IC50, in vitro cytotoxicity, WSU-DLCL-2 cells [2]: 0.247 µg/mL

B8: hBU12 32-load conjugate having the -X-D moiety of MDpr-PAB(gluc)-Camptothecin (antibody, V domains shown)
VH: B1 VH
VL: B1 VL
modifications: antibody carries PEGylated multiplexed scaffold C with MDpr-PAB(gluc)-Camptothecin, 32 drugs per antibody
fold improvement in cytotoxicity against the 8-load conjugate, Raj cells [3]: > 5 fold
fold improvement in cytotoxicity against the 8-load conjugate, Ramos cells [3]: > 5 fold
